Measurements published in patent publication US20030026800A1.

Assays:
[1] = target: antigen of Daudi B lymphoblastoid cells to which the mAbs of the invention bind; experiment: FACS double labelling, peripheral blood lymphocytes of healthy individuals
[2] = target: antigen of Daudi B lymphoblastoid cells to which the mAbs of the invention bind; experiment: FACS double labelling, peripheral blood lymphocytes of colon carcinoma patients
[3] = target: antigen of Daudi B lymphoblastoid cells to which the mAbs of the invention bind; experiment: FACS double labelling, peripheral blood lymphocytes of breast carcinoma patients
[4] = target: antigen of Daudi B lymphoblastoid cells to which the mAbs of the invention bind; experiment: FACS double labelling, peripheral blood lymphocytes of prostate carcinoma patients

percent of CD3+ BAT+ cells (of total CD3+ cells) [1]: 25%
percent of CD3+ BAT+ cells (of total CD3+ cells) [2]: 7%
percent of CD3+ BAT+ cells (of total CD3+ cells) [3]: 10%
percent of CD3+ BAT+ cells (of total CD3+ cells) [4]: 50%
B1: mouse BAT antibody (antibody, V domains shown)
VH: QIQLVQSGPELKKPGETVKISCKASGYTFTNYGMNWVKQAPGKGLKWMGWINTDSGESTYAEEFKGRFAFSLETSANTAYLQINNLNNEDTATYFCVRVGYDALDYWGQGTSVTVSS
VL: QIVLTQSPAIMSASPGEKVTITCSARSSVSYMHWFQQKPGTSPKLWIYRTSNLASGVPARFSGSGSGTSYCLTISRMEAEDAATYYCQQRSSFPLTFGSGTKLEIK
